From US20110143428A1 (Genentech, published 2011)

T1: VEGF-C C137S
T1 construct: also called hVEGF-C C137S; human VEGF-C C137S
T1 VEGF-C: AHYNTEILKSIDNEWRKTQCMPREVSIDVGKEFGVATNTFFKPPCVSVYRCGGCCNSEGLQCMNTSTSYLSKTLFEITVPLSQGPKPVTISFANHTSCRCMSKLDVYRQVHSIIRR

T2: hVEGF-C (human, UniProt P49767)
T2 construct: unlabelled; also called human VEGF-C
T2 sequence (VEGF-C, looked up): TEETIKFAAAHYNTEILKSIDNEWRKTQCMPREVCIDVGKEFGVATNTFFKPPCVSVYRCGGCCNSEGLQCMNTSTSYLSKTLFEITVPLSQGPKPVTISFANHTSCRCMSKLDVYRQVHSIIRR


Molecular target: T1, VEGF-C C137S
Assay: phage competition ELISA as in paragraph 556 with human VEGF-C C137S as antigen: phage-displayed clone, soluble antigen varied, anti-M13-HRP, OD450

Binder | IC50 [µM]
VC1.12.6 (antibody, V domains shown, also called clone VC1.12.6) VH: EVQLVESGGGLVQPGGSLRLSCAASGFTFSDSDIHWVRQAPGKGLEWVAWISPYVGFTDYADSVKGRFTISADTSKNTAYLQMNSLRAEDTAVYYCARLFDVIFDYWGQGTLVTVSS VL: DIQMTQSPSSLSASVGDRVTITCRASQDVSTAVAWYQQKPGKAPKLLIYSASFLYSGVPSRFSGSGSGTDFTLTISSLQPEDFATYYCQQSYNTPPTFGQGTKVEIK | 0.0328
VC1.12.3 (antibody, V domains shown, also called clone VC1.12.3) VH: EVQLVESGGGLVQPGGSLRLSCAASGFTFSDSDIHWVRQAPGKGLEWVAWISPYVGFTDYADSVKGRFTISADTSKNTAYLQMNSLRAEDTAVYYCARLFDVIFDYWGQGTLVTVSS VL: DIQMTQSPSSLSASVGDRVTITCRASQDVSTAVAWYQQKPGKAPKLLIYSASFLYSGVPSRFSGSGSGTDFTLTISSLQPEDFATYYCQQTYAIPPTFGQGTKVEIK | 0.023
VC1.12.2 (antibody, V domains shown, also called clone VC1.12.2) VH: EVQLVESGGGLVQPGGSLRLSCAASGFTFSDSDIHWVRQAPGKGLEWVAWISPYVGFTDYADSVKGRFTISADTSKNTAYLQMNSLRAEDTAVYYCARLFDVIFDYWGQGTLVTVSS VL: DIQMTQSPSSLSASVGDRVTITCRASQDVSTAVAWYQQKPGKAPKLLIYSASFLYSGVPSRFSGSGSGTDFTLTISSLQPEDFATYYCQQSYWTPLTFGQGTKVEIK | 0.0259
VC1.12.1 (antibody, V domains shown, also called clone VC1.12.1) VH: EVQLVESGGGLVQPGGSLRLSCAASGFTFSDSDIHWVRQAPGKGLEWVAWISPYVGFTDYADSVKGRFTISADTSKNTAYLQMNSLRAEDTAVYYCARLFDVIFDYWGQGTLVTVSS VL: DIQMTQSPSSLSASVGDRVTITCRASQDVSTAVAWYQQKPGKAPKLLIYSASFLYSGVPSRFSGSGSGTDFTLTISSLQPEDFATYYCQQSYNIPPTFGQGTKVEIK | 0.00729
VC1.12 (antibody, V domains shown, also called clone VC1.12) VH: EVQLVESGGGLVQPGGSLRLSCAASGFTFSDSDIHWVRQAPGKGLEWVAWISPYVGFTDYADSVKGRFTISADTSKNTAYLQMNSLRAEDTAVYYCARLFDVIFDYWGQGTLVTVSS VL: DIQMTQSPSSLSASVGDRVTITCRASQDVSTAVAWYQQKPGKAPKLLIYSASFLYSGVPSRFSGSGSGTDFTLTISSLQPEDFATYYCQQSYTTPPTFGQGTKVEIKR | 0.0324

Second part, the binder after the results:

IC50 [µM] | Binder
0.0168 | VC1.12.10 (antibody, V domains shown, also called clone VC1.12.10) VH: EVQLVESGGGLVQPGGSLRLSCAASGFTFSDSDIHWVRQAPGKGLEWVAWISPYVGFTDYADSVKGRFTISADTSKNTAYLQMNSLRAEDTAVYYCARLFDVIFDYWGQGTLVTVSS VL: DIQMTQSPSSLSASVGDRVTITCRASQDVSTAVAWYQQKPGKAPKLLIYSASFLYSGVPSRFSGSGSGTDFTLTISSLQPEDFATYYCQQSYYSPLTFGQGTKVEIK
0.0077 | VC1.12.4 (antibody, V domains shown, also called clone VC1.12.4) VH: EVQLVESGGGLVQPGGSLRLSCAASGFTFSDSDIHWVRQAPGKGLEWVAWISPYVGFTDYADSVKGRFTISADTSKNTAYLQMNSLRAEDTAVYYCARLFDVIFDYWGQGTLVTVSS VL: DIQMTQSPSSLSASVGDRVTITCRASQDVSTAVAWYQQKPGKAPKLLIYSASFLYSGVPSRFSGSGSGTDFTLTISSLQPEDFATYYCQQSYTSPTTFGQGTKVEIK
0.0048 | VC1.12.9 (antibody, V domains shown, also called clone VC1.12.9) VH: EVQLVESGGGLVQPGGSLRLSCAASGFTFSDSDIHWVRQAPGKGLEWVAWISPYVGFTDYADSVKGRFTISADTSKNTAYLQMNSLRAEDTAVYYCARLFDVIFDYWGQGTLVTVSS VL: DIQMTQSPSSLSASVGDRVTITCRASQDVSTAVAWYQQKPGKAPKLLIYSASFLYSGVPSRFSGSGSGTDFTLTISSLQPEDFATYYCQQSYTIPPTFGQGTKVEIK
0.0281 | VC1.12.5 (antibody, V domains shown, also called clone VC1.12.5) VH: EVQLVESGGGLVQPGGSLRLSCAASGFTFSDSDIHWVRQAPGKGLEWVAWISPYVGFTDYADSVKGRFTISADTSKNTAYLQMNSLRAEDTAVYYCARLFDVIFDYWGQGTLVTVSS VL: DIQMTQSPSSLSASVGDRVTITCRASQDVSTAVAWYQQKPGKAPKLLIYSASFLYSGVPSRFSGSGSGTDFTLTISSLQPEDFATYYCQQSYTTPTTFGQGTKVEIK
0.0137 | VC1.12.8 (antibody, V domains shown, also called clone VC1.12.8) VH: EVQLVESGGGLVQPGGSLRLSCAASGFTFSDSDIHWVRQAPGKGLEWVAWISPYVGFTDYADSVKGRFTISADTSKNTAYLQMNSLRAEDTAVYYCARLFDVIFDYWGQGTLVTVSS VL: DIQMTQSPSSLSASVGDRVTITCRASQDVSTAVAWYQQKPGKAPKLLIYSASFLYSGVPSRFSGSGSGTDFTLTISSLQPEDFATYYCQQSYITPPTFGQGTKVEIK

Molecular target: T2, hVEGF-C
Assay: phage competition ELISA: phage-displayed clone incubated with increasing soluble hVEGF-C, unbound phage captured on hVEGF-C coated plate, anti-M13-HRP, OD450

IC50 [µM] | Binder
0.0225 | VC1.8 (antibody, V domains shown, also called clone VC1.8) VH: EVQLVESGGGLVQPGGSLRLSCAASGFTFSDSDIHWVRQAPGKGLEWVAWISPYSGYTDYADSVKGRFTISADTSKNTAYLQMNSLRAEDTAVYYCTRLFTIIFDYWGQGTLVTVSS VL: DIQMTQSPSSLSASVGDRVTITCRASQDVSTAVAWYQQKPGKAPKLLIYSASFLYSGVPSRFSGSGSGTDFTLTISSLQPEDFATYYCQQSYTTPPTFGQGTKVEIK
0.0221 | VC1.3 (antibody, V domains shown, also called clone VC1.3) VH: EVQLVESGGGLVQPGGSLRLSCAASGFTFSDSDIHWVRQAPGKGLEWVAWISPYSGYTDYADSVKGRFTISADTSKNTAYLQMNSLRAEDTAVYYCVRLFEVIFDYWGQGTLVTVSS VL: DIQMTQSPSSLSASVGDRVTITCRASQDVSTAVAWYQQKPGKAPKLLIYSASFLYSGVPSRFSGSGSGTDFTLTISSLQPEDFATYYCQQSYTTPPTFGQGTKVEIK
0.0253 | VC1.11 (antibody, V domains shown, also called clone VC1.11) VH: EVQLVESGGGLVQPGGSLRLSCAASGFTFSDSDIHWVRQAPGKGLEWVAWISPYSGYTDYADSVKGRFTISADTSKNTAYLQMNSLRAEDTAVYYCVRLYDVIFDYWGQGTLVTVSS VL: DIQMTQSPSSLSASVGDRVTITCRASQDVSTAVAWYQQKPGKAPKLLIYSASFLYSGVPSRFSGSGSGTDFTLTISSLQPEDFATYYCQQSYTTPPTFGQGTKVEIK
0.028 | VC1.5 (antibody, V domains shown, also called clone VC1.5) VH: EVQLVESGGGLVQPGGSLRLSCAASGFTFSDSDIHWVRQAPGKGLEWVAWISPYSGYTDYADSVKGRFTISADTSKNTAYLQMNSLRAEDTAVYYCARLWEVIFDYWGQGTLVTVSS VL: DIQMTQSPSSLSASVGDRVTITCRASQDVSTAVAWYQQKPGKAPKLLIYSASFLYSGVPSRFSGSGSGTDFTLTISSLQPEDFATYYCQQSYTTPPTFGQGTKVEIK
0.02 | VC1.7 (antibody, V domains shown, also called clone VC1.7) VH: EVQLVESGGGLVQPGGSLRLSCAASGFTFSDSDIHWVRQAPGKGLEWVAWISPYSGYTDYADSVKGRFTISADTSKNTAYLQMNSLRAEDTAVYYCARLFDIIFDYWGQGTLVTVSS VL: DIQMTQSPSSLSASVGDRVTITCRASQDVSTAVAWYQQKPGKAPKLLIYSASFLYSGVPSRFSGSGSGTDFTLTISSLQPEDFATYYCQQSYTTPPTFGQGTKVEIK
0.0407 | VC1.4 (antibody, V domains shown, also called clone VC1.4) VH: EVQLVESGGGLVQPGGSLRLSCAASGFTFSDSDIHWVRQAPGKGLEWVAWISPYSGYTDYADSVKGRFTISADTSKNTAYLQMNSLRAEDTAVYYCVRLFGVIFDYWGQGTLVTVSS VL: DIQMTQSPSSLSASVGDRVTITCRASQDVSTAVAWYQQKPGKAPKLLIYSASFLYSGVPSRFSGSGSGTDFTLTISSLQPEDFATYYCQQSYTTPPTFGQGTKVEIK
0.0154 | VC1.6 (antibody, V domains shown, also called clone VC1.6) VH: EVQLVESGGGLVQPGGSLRLSCAASGFTFSDSDIHWVRQAPGKGLEWVAWISPYSGYTDYADSVKGRFTISADTSKNTAYLQMNSLRAEDTAVYYCVRLFDVIFDYWGQGTLVTVSS VL: DIQMTQSPSSLSASVGDRVTITCRASQDVSTAVAWYQQKPGKAPKLLIYSASFLYSGVPSRFSGSGSGTDFTLTISSLQPEDFATYYCQQSYTTPPTFGQGTKVEIK
0.017 | VC1.10 (antibody, V domains shown, also called clone VC1.10) VH: EVQLVESGGGLVQPGGSLRLSCAASGFTFSDSDIHWVRQAPGKGLEWVAWISPYSGYTDYADSVKGRFTISADTSKNTAYLQMNSLRAEDTAVYYCVRLFGIIFDYWGQGTLVTVSS VL: DIQMTQSPSSLSASVGDRVTITCRASQDVSTAVAWYQQKPGKAPKLLIYSASFLYSGVPSRFSGSGSGTDFTLTISSLQPEDFATYYCQQSYTTPPTFGQGTKVEIK
0.0271 | VC1.2 (antibody, V domains shown, also called clone VC1.2) VH: EVQLVESGGGLVQPGGSLRLSCAASGFTFSDSDIHWVRQAPGKGLEWVAWISPYSGYTDYADSVKGRFTISADTSKNTAYLQMNSLRAEDTAVYYCARLFEIIFDYWGQGTLVTVSS VL: DIQMTQSPSSLSASVGDRVTITCRASQDVSTAVAWYQQKPGKAPKLLIYSASFLYSGVPSRFSGSGSGTDFTLTISSLQPEDFATYYCQQSYTTPPTFGQGTKVEIK
0.0051 | VC1.12 (antibody, V domains shown, also called clone VC1.12) VH: EVQLVESGGGLVQPGGSLRLSCAASGFTFSDSDIHWVRQAPGKGLEWVAWISPYVGFTDYADSVKGRFTISADTSKNTAYLQMNSLRAEDTAVYYCARLFDVIFDYWGQGTLVTVSS VL: DIQMTQSPSSLSASVGDRVTITCRASQDVSTAVAWYQQKPGKAPKLLIYSASFLYSGVPSRFSGSGSGTDFTLTISSLQPEDFATYYCQQSYTTPPTFGQGTKVEIKR

Molecular target: T2, hVEGF-C
Assay: as above
Remark: another data set of the same source

IC50 [µM] | Binder
0.00264 | VC4.2 (antibody, V domains shown, also called clone VC4.2) VH: EVQLVESGGGLVQPGGSLRLSCAASGFTFTDNWIHWVRQAPGKGLEWVGVISPYSGATYYADSVKGRFTISADTSKNTAYLQMNSLRAEDTAVYYCARDADYAYAWWAFDYWGQGTLVTVSS VL: DIQMTQSPSSLSASVGDRVTITCRASQDVSTAVAWYQQKPGKAPKLLIYSASFLYSGVPSRFSGSGSGTDFTLTISSLQPEDFATYYCQQSYTTPPTFGQGTKVEIK
